Results: PMC3981819, “Signaling Properties and Pharmacological Analysis of Two Sulfakinin Receptors from the Red Flour Beetle, Tribolium castaneum” (PLoS ONE, 2014)
One block for each molecule: values may come before it. Square brackets hold non-standard residues; d marks the D form. Ends that are not written are not given here. * marks the point of attachment. SO3H = sulfate on Tyr (sulfated tyrosine), O=S(=O)(O)*; sY = N[C@@H](Cc1ccc(OS(=O)(=O)O)cc1)C(=O)O; pGlu = O=C1CC[C@@H](C(=O)O)N1

What was measured:
Trica-SKR1 [1] = test: Aequorin-luminescence assay, CHO-WTA11 cells (Gα16) transfected with Trica-SKR1; type: cell-based, Tribolium castaneum; conditions: aequorin bioluminescence
Experimental: (§1) General pharmacological studies were performed in Chinese Hamster Ovary (CHO) WTA11 cells, stably coexpressing apoaequorin, a zeocin resistance gene and the promiscuous Gα16, which couples most agonist-induced GPCRs to the phospholipase C and Ca^2+ pathway irrespective of their natural signaling cascade. CHO-PAM28 cells stably expressing apoaequorin and a puromycin resistance gene but not Gα16 and HEK293T cells (Invitrogen) were used to determine possible effects on Ca^2+ and/or cAMP second messenger systems, respectively. All cell lines were cultured in Dulbecco’s Modified Eagles Medium nutrient mixture F12-Ham (DMEM/F12; Invitrogen) supplemented with 1% penicillin/streptomycin (10000 units/ml penicillin and 10 mg/ml streptomycin in 0.9% NaCl; Invitrogen) to prevent bacterial contamination of gram-positive and gram-negative bacteria. In CHO-WTA11 culture medium 250 μg/ml zeocin (Invitrogen) was added as a selection marker, while CHO-PAM28 culture medium was supplemented with 5 μg/ml puromycin to select cells stably expressing apoaequorin. All cell culture media were supplemented with 10% fetal bovine serum (inactivated at […]; Sigma-Aldrich).
(§2) Cells were cultured in vitro as a monolayer at 37°C with a constant supply of 5% CO2 and were subcultivated twice a week. Transfections of cells were performed in T75 flasks at 60–80% confluency. Transfection reagent for CHO cells was prepared by combining 3.75 ml Opti-MEM I (Invitrogen), 7.5 μg plasmid DNA and 18.75 μl of Plus Reagent (Invitrogen). After gently mixing and 5 min incubation at room temperature 45 μl of Lipofectamine LTX was added to the mixture. This transfection medium was incubated for 30 min at room temperature and added dropwise to the cells, supplemented with 3 ml of fresh culture medium. HEK 293T cells were cotransfected with a receptor construct (6 μg) and CRE-luciferase reporter construct (3 μg), consisting of the open reading frame of the luciferase gene, downstream of a multimerized cAMP-response-element (CRE) and promoter. After transfection, cells were grown overnight before an additional 20 ml of culture medium was supplemented. Cells were again incubated overnight for a final growth phase before luminescence screens were performed.
(§3) The aequorin luminescence assay was used to measure Ca^2+ signaling in CHO cell lines. Cells were detached using phosphate buffered saline (PBS) containing 0.2% EDTA and collected in 10 ml of DMEM/F-12 (without phenol red, with L-glutamine and 10 mM HEPES; Gibco). The viable cells were quantified using a NucleoCounter NC-100 (Chemometic). Cells were pelleted by 4 min centrifugation at 800 rpm at room temperature and resuspended in DMEM/BSA (DMEM/F-12 without phenol red, with L-glutamine and 10 mM HEPES, 0.1% bovine serum albumin) at a concentration of 5×10^6 cells/ml. Cells were then shielded from light and Coelenterazine H (Invitrogen) was added at a final concentration of 5 μM. Cells were gently shaken at room temperature for 4 h under dark conditions, allowing the aequorin holoenzyme to be reconstituted. After a 10-fold dilution in DMEM/BSA, cells were incubated another 30 min under the same conditions. Pharmacological ligands were dissolved in DMEM/BSA and 50 μl of ligand was added to wells of a 96-well plate. Wells containing 50 μl of DMEM/BSA were used as a negative control, while wells containing 1 μM of ATP served as positive control. Incubated cells were added to the wells of the 96-well plate and light emission was measured for 30 s using a Mithras LB940 (Berthold Technologies). After 30 s Triton X-100 (0.2% in DMEM/BSA) was added, lysing the cells and thus serving as an internal reference. Light emission was measured for an additional 8 s after Triton X-100 was introduced in the wells. Light emission from each well was calculated relative to the total response (ligand+Triton X-100) using the output file of Mikrowin2000 software (Mikrotek). Further analysis was done in Graphpad Prism 5.

Trica-SKR2 [2] = test: Aequorin-luminescence assay, CHO-WTA11 cells (Gα16) transfected with Trica-SKR2; type: cell-based, Tribolium castaneum; conditions: aequorin bioluminescence
Experimental: as §1, §2, §3

Trica-SKR1 [3] = test: Aequorin-luminescence assay, CHO-PAM28 cells (no Gα16) transfected with Trica-SKR1; type: cell-based, Tribolium castaneum; conditions: CHO-PAM28 cells without Gα16; aequorin bioluminescence (Ca2+); three independent measurements in duplicate; read-out: EC50 for receptor activation in CHO-PAM28 cells, Trica-SKR1
Experimental: (§4) General pharmacological studies were performed in Chinese Hamster Ovary (CHO) WTA11 cells, stably coexpressing apoaequorin, a zeocin resistance gene and the promiscuous Gα16, which couples most agonist-induced GPCRs to the phospholipase C and Ca^2+ pathway irrespective of their natural signaling cascade. CHO-PAM28 cells stably expressing apoaequorin and a puromycin resistance gene but not Gα16 and HEK293T cells (Invitrogen) were used to determine possible effects on Ca^2+ and/or cAMP second messenger systems, respectively. […]
(§5) Cells were cultured in vitro as a monolayer at 37°C with a constant supply of 5% CO2 and were subcultivated twice a week. […] HEK 293T cells were cotransfected with a receptor construct (6 μg) and CRE-luciferase reporter construct (3 μg), consisting of the open reading frame of the luciferase gene, downstream of a multimerized cAMP-response-element (CRE) and promoter. […] Cells were again incubated overnight for a final growth phase before luminescence screens were performed.
(§6) The aequorin luminescence assay was used to measure Ca^2+ signaling in CHO cell lines. […] The viable cells were quantified using a NucleoCounter NC-100 (Chemometic). […] Incubated cells were added to the wells of the 96-well plate and light emission was measured for 30 s using a Mithras LB940 (Berthold Technologies). […]

Trica-SKR2 [4] = test: Aequorin-luminescence assay, CHO-PAM28 cells (no Gα16) transfected with Trica-SKR2; type: cell-based, Tribolium castaneum; conditions: CHO-PAM28 cells without Gα16; aequorin bioluminescence (Ca2+); three independent measurements in duplicate; read-out: EC50 for receptor activation in CHO-PAM28 cells, Trica-SKR2
Experimental: as §4, §5, §6

Trica-SKR1 [5] = test: CRE-luciferase reporter-gene assay (cAMP), HEK293T cells transfected with Trica-SKR1; type: cell-based, Tribolium castaneum; conditions: HEK293T cells cotransfected with CRE-luciferase; 200 μM IBMX; 3–4 h at 37°C; six independent measurements in duplicate; read-out: EC50, luciferase bioluminescence (cAMP), Trica-SKR1
Experimental: as §4, §5
(§7) The luciferase reporter-gene assay was used to quantify positive or negative coupling of the receptor to cAMP in HEK293T cells. Cotransfected HEK293T cells were detached and the viable cells were quantified using the NucleoCounter NC-100 (Chemometic) as described for CHO cells. […] Data were analyzed as described for CHO cells.

Trica-SKR2 [6] = test: CRE-luciferase reporter-gene assay (cAMP), HEK293T cells transfected with Trica-SKR2; type: cell-based, Tribolium castaneum; conditions: HEK293T cells cotransfected with CRE-luciferase; 200 μM IBMX; 3–4 h at 37°C; three independent measurements in duplicate; read-out: EC50, luciferase bioluminescence (cAMP), Trica-SKR2
Experimental: as §4, §5, §7

[7] = system: CHO-PAM28 cells transfected with empty pcDNA3.1/V5-His-TOPO TA expression vector; test: Aequorin-luminescence assay, CHO-PAM28 cells transfected with empty expression vector; type: cell-based, Chinese Hamster; conditions: aequorin bioluminescence
Experimental: as §4, §5, §6

[8] = system: HEK293T cells transfected with empty pcDNA3.1/V5-His-TOPO TA expression vector; test: CRE-luciferase reporter-gene assay, HEK293T cells transfected with empty expression vector; type: cell-based; conditions: CRE-luciferase bioluminescence
Experimental: as §4, §5, §7

[9] = target: Tribolium castaneum sulfakinin receptor 1 (T. castaneum)
[10] = target: Tribolium castaneum sulfakinin receptor 2 (T. castaneum)
[11] = target: Tribolium castaneum sulfakinin receptor 1 (T. castaneum); remark: listed apart in the source
[12] = target: Tribolium castaneum sulfakinin receptor 2 (T. castaneum); remark: listed apart in the source
[13] = target: Tribolium castaneum sulfakinin receptor 1 (T. castaneum); remark: listed apart in the source
[14] = target: Tribolium castaneum sulfakinin receptor 2 (T. castaneum); remark: listed apart in the source
[15] = target: Tribolium castaneum sulfakinin receptor 1 (T. castaneum); remark: listed apart in the source
[16] = target: Tribolium castaneum sulfakinin receptor 2 (T. castaneum); remark: listed apart in the source
[17] = peptide at 1 μM, relative to sTrica-SK(5–13) at 1 μM = 100%, at least three biological repeats, each in duplicate

EC50 (Trica-SKR1 [1]; 1 fM to 1 μM, ± 95% confidence interval, three independent measurements in duplicate): 0.0995 ± 0.028 nM | EC50 (Trica-SKR2 [2]; 1 fM to 1 μM, three independent measurements in duplicate): 0.524 ± 0.2 nM | EC50 (Trica-SKR1 [3]): 0.0585 ± 0.024 nM | EC50 (Trica-SKR2 [4]): 1.61 ± 0.45 nM | EC50 (Trica-SKR1 [5]): 0.0049 ± 0.0042 nM | EC50 (Trica-SKR2 [6]): 1.4 ± 0.3 nM
Molecule: FDDY(SO3H)GHMRFa [sTrica-SK(5–13), sulfated C-terminal fragment of T. castaneum SK comprising amino acids 5–13, reference compound]
concentration at which maximal response was attained, Trica-SKR1 (Trica-SKR1 [1]): 100 nM | % Trica-SKR1 (relative activation) (Trica-SKR1 [1]; [17]): 100.0% | concentration at which maximal response was attained, Trica-SKR2 (Trica-SKR2 [2]): 100 nM | % Trica-SKR2 (relative activation) (Trica-SKR2 [2]; [17]): 100.0% | signal in empty-vector transfected CHO-PAM28 cells [7]: no signal was observed | signal in empty-vector transfected HEK293T cells [8]: no signal was observed

aequorin bioluminescence in CHO-WTA11 cells transfected with the receptor, peptide at 1 μM, % of the response to 1 μM sTrica-SK(5–13) [9]: 16.5% | aequorin bioluminescence in CHO-WTA11 cells transfected with the receptor, peptide at 1 μM, % of the response to 1 μM sTrica-SK(5–13) [10]: 16.6%
B1: 1679[φ1]wp-4 (peptide)
peptide: [pGlu]PS[sY]DRDIMSF-NH2
SMILES: CC[C@H](C)[C@H](NC(=O)[C@H](CC(=O)O)NC(=O)[C@H](CCCNC(=N)N)NC(=O)[C@H](CC(=O)O)NC(=O)[C@H](Cc1ccc(OS(=O)(=O)O)cc1)NC(=O)[C@H](CO)NC(=O)[C@@H]1CCCN1C(=O)[C@@H]1CCC(=O)N1)C(=O)N[C@@H](CCSC)C(=O)N[C@@H](CO)C(=O)N[C@@H](Cc1ccccc1)C(N)=O

aequorin bioluminescence in CHO-WTA11 cells transfected with the receptor, peptide at 1 μM, % of the response to 1 μM sTrica-SK(5–13) (this peptide is the 100% reference) [9]: 100% | aequorin bioluminescence in CHO-WTA11 cells transfected with the receptor, peptide at 1 μM, % of the response to 1 μM sTrica-SK(5–13) (this peptide is the 100% reference) [10]: 100% | EC50 of aequorin bioluminescence (Ca2+) in CHO-WTA11 cells (Gα16) transfected with the receptor, peptide 1 fM to 1 μM [11]: 0.0995 nM | EC50 of aequorin bioluminescence (Ca2+) in CHO-WTA11 cells (Gα16) transfected with the receptor, peptide 1 fM to 1 μM [12]: 0.524 nM | EC50 of aequorin bioluminescence (Ca2+) in CHO-PAM28 cells (no Gα16) transfected with the receptor [13]: 0.0585 nM | EC50 of aequorin bioluminescence (Ca2+) in CHO-PAM28 cells (no Gα16) transfected with the receptor [14]: 1.61 nM | EC50 of CRE-luciferase bioluminescence (cAMP) in HEK293T cells cotransfected with the receptor [15]: 0.0049 nM | EC50 of CRE-luciferase bioluminescence (cAMP) in HEK293T cells cotransfected with the receptor [16]: 1.4 nM
B2: sulfated C-terminal fragment of T. castaneum SK comprising amino acids 5–13 (peptide)
peptide: FDDY(SO3H)GHMRF-NH2
modifications: N-terminus assumed
SMILES: CSCC[C@H](NC(=O)[C@H](Cc1c[nH]cn1)NC(=O)CNC(=O)[C@H](Cc1ccc(OS(=O)(=O)O)cc1)NC(=O)[C@H](CC(=O)O)NC(=O)[C@H](CC(=O)O)NC(=O)[C@@H](N)Cc1ccccc1)C(=O)N[C@@H](CCCNC(=N)N)C(=O)N[C@@H](Cc1ccccc1)C(N)=O

aequorin bioluminescence in CHO-WTA11 cells transfected with the receptor, peptide at 1 μM, % of the response to 1 μM sTrica-SK(5–13) [9]: 58.2% | aequorin bioluminescence in CHO-WTA11 cells transfected with the receptor, peptide at 1 μM, % of the response to 1 μM sTrica-SK(5–13) [10]: 41.4%
B3: 1835[φ2]wp-4 (peptide)
peptide: SDD[sY]GHMRF-NH2
modifications: N-terminus assumed
SMILES: CSCC[C@H](NC(=O)[C@H](Cc1c[nH]cn1)NC(=O)CNC(=O)[C@H](Cc1ccc(OS(=O)(=O)O)cc1)NC(=O)[C@H](CC(=O)O)NC(=O)[C@H](CC(=O)O)NC(=O)[C@@H](N)CO)C(=O)N[C@@H](CCCNC(=N)N)C(=O)N[C@@H](Cc1ccccc1)C(N)=O

aequorin bioluminescence in CHO-WTA11 cells transfected with the receptor, peptide at 1 μM, % of the response to 1 μM sTrica-SK(5–13) [9]: 75% | aequorin bioluminescence in CHO-WTA11 cells transfected with the receptor, peptide at 1 μM, % of the response to 1 μM sTrica-SK(5–13) [10]: 79.9% | EC50 of aequorin bioluminescence (Ca2+) in CHO-WTA11 cells (Gα16) transfected with the receptor, peptide 1 fM to 1 μM [11]: 16.8 nM | EC50 of aequorin bioluminescence (Ca2+) in CHO-WTA11 cells (Gα16) transfected with the receptor, peptide 1 fM to 1 μM [12]: 776 nM
B4: sulfated SK from the migratory locust, Locusta migratoria (peptide)
peptide: [pGlu]LASDDY(SO3H)GHMRF-NH2
SMILES: CSCC[C@H](NC(=O)[C@H](Cc1c[nH]cn1)NC(=O)CNC(=O)[C@H](Cc1ccc(OS(=O)(=O)O)cc1)NC(=O)[C@H](CC(=O)O)NC(=O)[C@H](CC(=O)O)NC(=O)[C@H](CO)NC(=O)[C@H](C)NC(=O)[C@H](CC(C)C)NC(=O)[C@@H]1CCC(=O)N1)C(=O)N[C@@H](CCCNC(=N)N)C(=O)N[C@@H](Cc1ccccc1)C(N)=O
